Results on one molecule are retold here after publication PMC11034791.

This data set has as its target Neuropeptide Y (NPY) (UniProt P01303 29-64). As to the kind of experiment: electrochemical impedance spectroscopy.

B1: NPY aptamer (80-base ssDNA) (ssDNA)
DNA: AGCAGCACAGAGGTCAGATGCAAACCACAGCCTGAGTGGTTAGCGTATGTCATTTACGGACCTATGCGTGCTACCGTGAA
modifications: 5' disulfide C6 (reduced to thiol), immobilized on Au
Turning to B1, the binding result is recorded as “binds”.
